Experimental data as given in patent publication US20240174746A1 (Alector, published 2024).
Numbering of substitutions follows the chain as printed.

B1: TM-63 (antibody, V domains shown)
VH: QVQLQQPGAELVKFGASVKLSCKASGYTFTSFWMHWVKQRPGQGLEWIGNIDPSDSETHYSQKFKDKATLTVDRSSNTAYIQLSSLTSEDSAVYYCARSSNWDNFDYWGQGTTVTVSS
VL: DIVMTQASPSVSVTPGESVSISCRSSQSLLHVNGNTYLYWFLQRPGRSPRLLIYRMSNLASGVPDRFSGSGSGTAFTLRISRVEAEDVGVYYCMQHLQYPFSFGSGTKLEMK
notes: Purified from mouse hybridoma
B2: TM-64 (antibody, V domains shown)
VH: QVQLQQPGAELVKPGASVKLSCKASGYTFTSYWMHWVKQRPGHGLEWIGNIDPSDSDTHYNQNFRGKATLTVDKFSTTAYMHLSSLTSEDSAVYYCARSRGGTYDYGEAMDYWGQGTSVTVSS
VL: B1 VL with S8A, S12P, Q27K, V32T, Y39F, R50Q, Q98E, S102T, M111I
notes: Purified from mouse hybridoma
B3: TM-66 (antibody, V domains shown)
VH: EVMLVESGGALVEPGGSLKLSCAASGITFSNYAMSWIRQTPEKRLEWVATIGSVGSYTYYPDSVKGRFTISRDNARNTLYLQMSSLRSEDTAMYYCARQEGSSHFDYWGQGTTLTVSS
VL: DVVVTQTPPSLPVSFGDQVSISCRSSQSLVNSYGKTFLSWYLHKPGQSPQLLIYGISNRFSGVPDRFSGSGSGTVFTLKISTIKPEDLGMYYCLQGTHPPLTFGAGTKLEMK
notes: Purified from mouse hybridoma
B4: TM-83 (antibody, V domains shown)
VH: QVQLQQPGTELVKPGALVKLSCKASGYTFTTYWIHWVKQRPGQGLEWIGNINPSNGNTKNNERFKTKATLTVDKSSSTAYMQLSSLTSEDSAVYYCVRGDYYGTSYPFWGQGTLVTVSS
VL: DVVMTQTPLSLPVSLGDQASISCRSSQSLVHSNGITYLHWYLQKPGQSPKLLIYKVSNRFSGVPDRFSGSGSGTDFTLKISRVEAEDLGVYFCSQSTHVPYTFGGGTKLEIK
notes: Purified from mouse hybridoma
B5: TM-72 (antibody, V domains shown)
VH: QVQLQQPGAELVKPGTSVKLSCKASGSTFTNYWMHWVMQRPGQGLEWIGNIDPSDSDTHYNQKFKDRAKLTVDKSSSTAYMQLSGLTSEDSAVYYCARSRGGYYDYGEAMDYWGQGTSVTVSS
VL: DIVMTQAAPSVPVTPGESVSISCRSSKSLLHTNGNTYLFWFIQRPGQSPHLLIYRKSNLASGVPDRFSGSGSGTAFTLRISRVEAEDVGVYYCMQHLEYPFTFGSGTKLEIK
notes: Purified from mouse hybridoma
B6: TM-59 (antibody, V domains shown)
VH: QVQLQQSGAELAKPGASVKLSCKASGYTFISYWMHWVKQRPGQGLEWIGYVNPSSGYTKNNQKFKDKATLTADKSSSTAYMQLSSLTYEDSAVYYCAREGGSISDWYFDVWGTGTTVTVSS
VL: B5 VL with T32S, L38S, F39Y, I42L, H50Q, K56M, F101Y, S105G
notes: Purified from mouse hybridoma
B7: TM-82 (antibody, V domains shown)
VH: QVQLQQSGAELVRPGTSVRVSCKASGYAFTNYLIEWIKQRPGQGLEWIGVINPGSGITDYSEKFKGKARLTADKSSSTAYMQLSSLTSDDSAVYFCTRSPFITTVVADYWGQGTTVTVSS
VL: DVVVTQTPLSLPVSFGDQVSISCRSSQSLANTYGNTYLSWYLHTPGQSPQLLIFGISNRFSGVPDRFSGSGSGTDFTLKISTIKPEDLGVYYCLQGTHPPRTFGGGTKLEMK
notes: Purified from mouse hybridoma
B8: TM-61 (antibody, V domains shown)
VH: QVQLQQSGAELAKPGASVKLSCKASGYTFTNYWMNWVKQRPGQGLEWIGYINPSSDYTKYNQNFKDKATLTADKSSSTAYMQLNSLTYEDSAVYYCTRWGGSRSYWYFDVWGAGTTVTVSS
VL: DIVMTQSPSSLSASAGEKVTMSCKSSQSLLNSGNQKNYLAWYQQKPGQSPKLLIYGASTRESGVPDRFTGSGSGTDFTLTISSVQAEDLAVYYCQNDSNYPFTFGGGTKLEMK
notes: Purified from mouse hybridoma
B9: TM-54 (antibody, V domains shown)
VH: QVQMQQSGPVLVKPGASVTLSCKASGYTFTTYDLNWVKQRPGQGLEWIGWIYPRGGSTEYNEKFKGKATLTVDTSSSTAYMELHSLTSEDSAVYFCAKYSIYAMDYWGQGTSVTVSS
VL: DVLMTQTPLSLPVSLGDQASISCRSSQSIVHGNGNTYLEWYLQKPGQSPKLLIYKVSNRFSGVPDRFSGSGSGTDFTLKISRVEAEDLGVYYCFQGSHVPWTFGGGTKLEMK
notes: Purified from mouse hybridoma
B10: TM-60 (antibody, V domains shown)
VH: QVQLQQSGPELVKPGASVKLSCKASGYTFTSYDINWVKQRPGQGLEWIGWIYPRDGNTQYIEKLKGKATLTVDTSSSTAYMELHSLTSEDSAVYFCARWIFYAMDYWGQGTSVTVSS
VL: B9 VL with V99L, W101Y, M111I
notes: Purified from mouse hybridoma
B11: TM-62 (antibody, V domains shown)
VH: QVQLQQPGTELVRPGSSVKLSCKAAGYTFTRYWMHWVKQRPIQGLEWIGNIDPSDSETQYNPKFKDKATLTVDRSSSTAYMHLSSLTSEDSAVYYCARLTTLDYAMDYWGQGTSVTVSS
VL: QIVLTQSPAIMSASPGEKVTISCSASSSVSYMYWYQQKAGSSPKPWIHRTSNLASGVPARFSGSGSGTSYSLTIRSMEAEDAATYYCQQYHSYPPTFGVGTKLELK
notes: Purified from mouse hybridoma
B12: TM-65 (antibody, V domains shown)
VH: QVQLQQPGAEFVKPGASVRLSCKTSGYTFTSSWMHWVKQRPGQGLEWIGEINPKNGGTNYNEKFKTKATLTVDKSSNTAYMQLSSLTSEDSAVYYCTIPTWFTYWGQGTLVTVSS
VL: DIQMNQSPSSLSASLGDTITITCRASQNINIWLSWYQQKPGNVPKLLIYKASNLHTGVPSRFSGSGSGTGFTLTISSLQPEDIATYYCLQGQSYPYTFGGGTKLGIK
notes: Purified from mouse hybridoma
B13: TM-90 (antibody, V domains shown)
VH: QVHLQQSGPELVKPGASVKLSCKASGYPFTSYDINWVKQRPGQGLEWIGWIYPRDGNAKYNEKFKGKATLTVDTSSSTAYMELHSLTSENSAVYFCARVSDYHGGYGMDYWGQGTSVTVSS
VL: B9 VL with I29F, N58H, S81T, G96N, W101H, M111I
notes: Purified from mouse hybridoma

These binders were tested against T1, mouse TMEM106B (mouse, UniProt Q80X71 2-275) (assay: flow cytometry, HEK293 cells transiently transfected with murine TMEM106B).
T1 construct: Full-length cDNA transiently transfected into HEK293 cells; also called muTMEM106B; murine TMEM106B
Protocol: (§1) For screening of the hybridoma cell culture supernatants, humanTMEM106B-transfected HEK293 cells were aliquoted in 96-well round bottom plates (2×10⁵ cells per well) and incubated with 50 μL of hybridoma cell culture supernatant on ice for 30 minutes. […] Cell sorting was performed on a FACS Canto system (BD Biosciences) or iQue (Intellicyt), with sort gates drawn to exclude dead (i.e., propidium iodide-positive) cells. Median fluorescence intensity (MFI) of anti-mouse-APC MFI on TMEM106B+ HEK293 cells was calculated for each clone, and those displaying a signal of at least 2-fold over background compared to a secondary-antibody only well were taken forward for further analysis and characterization.
For B1, the “fold-change in binding over parental HEK293 cells” value (“fold-change in binding” for short) was 0.62 fold. For B2, the “fold-change in binding” value was 1.07 fold. For B3, the “fold-change in binding” value was 4.07 fold. B4 was tested, and the “fold-change in binding” value was 9.91 fold. B5 was tested, and the “fold-change in binding” value was 0.23 fold. In the case of B6, the “fold-change in binding” value is reported as 0.42 fold. B7 was tested, and the “fold-change in binding” value was 0.88 fold. With B8 the “fold-change in binding” value was 0.68 fold. With B9 the “fold-change in binding” value was 1.17 fold. For B10, the “fold-change in binding” value was 0.43 fold. For B11, the “fold-change in binding” value was 0.86 fold. In the case of B12, the “fold-change in binding” value is reported as 1.35 fold.

These binders were tested against T2, cynomolgus (cyno) TMEM106B (cynomolgus, UniProt Q9NUM4 2-274 (human entry)) (assay: flow cytometry, HEK293 cells transiently transfected with cyno TMEM106B).
T2 construct: Full-length cDNA transiently transfected into HEK293 cells
Protocol: as §1
B1 was tested, and the “fold-change in binding” value was 8.24 fold. With B2 the “fold-change in binding” value was 7.12 fold. B3 was tested, and the “fold-change in binding” value was 7.13 fold. B7 was tested, and the “fold-change in binding” value was 1.49 fold. With B8 the “fold-change in binding” value was 5.15 fold. With B9 the “fold-change in binding” value was 6.27 fold. In the case of B10, the “fold-change in binding” value is reported as 2.63 fold. B13 was tested, and the “fold-change in binding” value was 1.32 fold. B11 was tested, and the “fold-change in binding” value was 2.93 fold. In the case of B12, the “fold-change in binding” value is reported as 2.15 fold.

These binders were tested against T3, human TMEM106B (human, UniProt Q9NUM4 2-274) (assay: flow cytometry, HEK293 cells transiently transfected with human TMEM106B).
T3 construct: Full-length cDNA transiently transfected into HEK293 cells; also called huTMEM106B
Protocol: as §1
For B1, the “fold-change in binding” value was 7.12 fold. B2 was tested, and the “fold-change in binding” value was 12.8 fold. For B3, the “fold-change in binding” value was 5.03 fold. For B4, the “fold-change in binding” value was 0.42 fold. With B5 the “fold-change in binding” value was 3.81 fold. For B6, the “fold-change in binding” value was 8.71 fold. In the case of B8, the “fold-change in binding” value is reported as 5.07 fold. For B9, the “fold-change in binding” value was 15.6 fold. With B10 the “fold-change in binding” value was 4.39 fold. B13 was tested, and the “fold-change in binding” value was 1.25 fold. In the case of B11, the “fold-change in binding” value is reported as 11.4 fold. With B12 the “fold-change in binding” value was 4.14 fold.
